Laboratory results as given in US20210154269A1.

Experiments:
human CD47 (human) [1] = target: human CD47 (human) (UniProt Q08722); experiment: cell-based or functional assay
human CD47 (human) [2] = target: human CD47 (human) (UniProt Q08722); experiment: affinity for human CD47; method not stated
human CD47 (human) [3] = target: human CD47 (human) (UniProt Q08722); experiment: in vitro receptor occupancy assay, at ~1 µM

Row | EC50, PathHunter SIRPα Signaling Bioassay (human CD47 (human) [1]) | inhibition of SIRPα signaling at 1 nM (human CD47 (human) [1]) | Kd (human CD47 (human) [2]) | receptor occupancy (human CD47 (human) [3]) | Substance
1 | > 0.15 mg/L | < 10% | 0.5 µM | 40% | TTI-621 (from UniProt P78324 31-149) (Fc fusion)
2 | > 0.15 mg/L | < 10% | 0.5 µM | 40% | TTI-622 (from UniProt P78324 31-149) (Fc fusion)
